In IntAct's records for PubMed 28319063:

B1: Partner and localizer of BRCA2 (Mus musculus), Q3U0P1 (parent)
chain: MEELSGKPLSYAEKEKLKEKLAFLKKEYSRTLARLQRAKRAEKAKNSKKAIEDGVPQPEASSQLSHSESINKGFPCDTLQSNHLDEETGENISQILDVEPQSFNCKQGKEVLHTPRAGDIQGQLLHSTSSPDGKKEQNTLPGTTKTPWEKSSVSQEKEDYFDTNSLALLGKHRKGQESISRKNSRTPVSEKTHLLSLRSQIPDPPALVTGIGEGILIPPSGKSERGIDTLVRGNTVSAEAAVPSCTASNSNHSQHLEHTPPKSGCKITTQGPASSTNLVAQDQKMTIFTVNSVVYKAVRAHGQLPGSPNSCSVNDLTHSNLPANSTPNSKSLKSPSNTVDERNEPLQEDEILGPSKNFNLAAVSPPSTESQIHSCTMLEGLLFPAEYYVRTTRRMSDCQRKIALEAVIQSHLGVKKKELKKKTKATKAVVLSSEDTDQSESGMLDTSTGQSSSGSLSQKLLSPAEVSSPPGPAGKATTPPPGRGHRGKRKSARTSTLGHCQLLFPPCAALAVNRSKGKFTKHKCQNRGVVIHDFELPDEDFGLLKLEKLKSCSEKLIESPDSKNCGERLPREGNHAALEELQRDSETEGLEEELTVPPGEAYRPGPTLRRQPGSKDLSSSIVLFTPADTAAPNDSGRPPPSLCSPAFPILGMTPALGSQAAGETLSTEAAQPCSTSQPPLLGDTNSLVNNSKQCNSSACSPKPDTNLQASGRQGQPACDSDSGPQATPLPVESFTFRENQLCGNACLELHEHSTEQTETADRPACDNLNPGNLQLVSELKNPSSSCSVDVSAMWWERAGAKEPCIVTACEDVVSLWKPLNSLQWEKVHTWHFTEVPVLQIVPVPDVYNLICVALGSLEIREIRALLCSSGDDSEKQVLLKSGDIKAMLGLTKRRLVSSTGTFCNQQIQIMTFADDGSSKDEQLLMPPDETVLTFAEVQGTQEALLGTTTVNSIVIWNLKTGQLLKKMHIDDSYQASVCHGAYSEKGLLFVVVSQPCAKESQALGSPVFQLLVINPKTAQSVGVLLCSLPQGQAGRFLEGDVKDHVAAAVLTSGTIAIWDLLLGHCTALLPPVSDQSWSLVKWSGTDSHLLAGQKDGNIFIYRYF

Variants of: B1
Details: with brca1_human BRCA1, P38398
Sequence of brca1_human BRCA1, P38398 (P38398 whole entry, looked up): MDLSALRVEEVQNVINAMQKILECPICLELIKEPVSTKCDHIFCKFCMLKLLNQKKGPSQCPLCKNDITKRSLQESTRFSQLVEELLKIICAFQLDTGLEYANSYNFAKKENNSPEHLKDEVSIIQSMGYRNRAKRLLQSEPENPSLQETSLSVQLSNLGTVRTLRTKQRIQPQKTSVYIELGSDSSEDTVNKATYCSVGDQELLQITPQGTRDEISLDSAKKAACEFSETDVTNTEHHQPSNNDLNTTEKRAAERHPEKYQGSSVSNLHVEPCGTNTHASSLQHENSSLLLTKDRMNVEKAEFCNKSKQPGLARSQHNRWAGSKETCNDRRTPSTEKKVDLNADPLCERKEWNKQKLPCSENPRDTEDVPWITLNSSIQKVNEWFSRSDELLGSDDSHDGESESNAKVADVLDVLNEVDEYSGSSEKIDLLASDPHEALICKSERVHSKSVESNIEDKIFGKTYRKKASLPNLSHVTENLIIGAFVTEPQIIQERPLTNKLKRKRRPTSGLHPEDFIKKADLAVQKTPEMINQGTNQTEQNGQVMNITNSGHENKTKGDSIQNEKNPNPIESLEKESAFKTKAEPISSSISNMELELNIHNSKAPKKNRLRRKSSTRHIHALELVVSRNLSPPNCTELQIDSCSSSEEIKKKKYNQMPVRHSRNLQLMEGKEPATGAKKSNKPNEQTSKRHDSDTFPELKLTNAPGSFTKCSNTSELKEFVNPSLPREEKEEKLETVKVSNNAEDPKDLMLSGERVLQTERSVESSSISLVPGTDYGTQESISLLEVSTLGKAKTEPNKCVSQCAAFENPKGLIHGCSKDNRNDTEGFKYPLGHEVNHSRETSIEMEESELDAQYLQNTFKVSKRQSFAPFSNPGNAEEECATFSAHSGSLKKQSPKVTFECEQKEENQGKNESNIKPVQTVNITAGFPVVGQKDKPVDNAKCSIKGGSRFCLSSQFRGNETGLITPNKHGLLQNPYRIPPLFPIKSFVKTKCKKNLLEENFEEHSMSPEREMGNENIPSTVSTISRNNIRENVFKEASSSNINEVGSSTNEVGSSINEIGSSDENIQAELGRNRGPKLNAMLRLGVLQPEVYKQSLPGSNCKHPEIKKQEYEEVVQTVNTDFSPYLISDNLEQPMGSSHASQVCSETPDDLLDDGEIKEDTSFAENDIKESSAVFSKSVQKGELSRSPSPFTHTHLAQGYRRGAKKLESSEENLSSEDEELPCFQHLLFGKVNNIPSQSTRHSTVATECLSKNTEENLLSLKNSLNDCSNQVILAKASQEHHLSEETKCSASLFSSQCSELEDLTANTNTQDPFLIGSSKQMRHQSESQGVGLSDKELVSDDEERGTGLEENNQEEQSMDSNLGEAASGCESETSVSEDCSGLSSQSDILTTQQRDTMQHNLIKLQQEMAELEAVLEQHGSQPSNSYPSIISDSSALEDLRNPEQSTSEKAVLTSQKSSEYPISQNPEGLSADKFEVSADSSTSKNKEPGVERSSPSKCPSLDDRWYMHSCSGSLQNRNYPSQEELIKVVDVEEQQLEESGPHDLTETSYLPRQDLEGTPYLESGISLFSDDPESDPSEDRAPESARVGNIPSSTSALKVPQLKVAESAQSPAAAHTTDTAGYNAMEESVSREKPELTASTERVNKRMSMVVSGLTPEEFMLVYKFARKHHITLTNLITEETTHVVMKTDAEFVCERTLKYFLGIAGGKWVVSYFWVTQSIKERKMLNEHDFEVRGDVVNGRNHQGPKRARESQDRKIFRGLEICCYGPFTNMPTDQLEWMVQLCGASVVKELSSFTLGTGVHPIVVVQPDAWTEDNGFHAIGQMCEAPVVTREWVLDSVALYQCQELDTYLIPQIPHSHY

Variant	effect of a mutation on the interaction
R37H	with no effect
L35P	disrupting interaction
K18R	with no effect
Y28C	disrupting interaction
